{
  "source": "patent US20140227295A1",
  "about": "(Bristol-Myers Squibb, published 2014)",
  "binders": {"B1": {"name": "conjugate (II-1), a conjugate of compound (III-1) and the anti-mesothelin antibody 6A4 (antibody, V domains shown)", "VH": "QVHLVESGGGVVQPGRSLRLSCVASGITFRIYGMHWVRQAPGKGLEWVAVLWYDGSHEYYADSVKGRFTISRDNSKNTLYLQMNSLRAEDTAIYYCARDGDYYDSGSPLDYWGQGTLVTVSS", "VL": "EIVLTQSPATLSLSPGERATLSCRASQSVSSYLAWYQQKPGQAPRLLIYDASNRATGIPARFSGSGSGTDFTLTISSLEPEDFAVYYCQQRSNWPLTFGGGTKVEIK", "modifications": "lysine ε-amino groups thiolated with 2-iminothiolane and linked to the maleimide of tubulysin drug-linker compound (III-1); sites and chain not stated"}},
  "biological_target": "mesothelin (UniProt Q13421 37-598, limits assumed)",
  "sequence (Q13421 other isoform, or with tags, fused parts or gaps limits assumed)": "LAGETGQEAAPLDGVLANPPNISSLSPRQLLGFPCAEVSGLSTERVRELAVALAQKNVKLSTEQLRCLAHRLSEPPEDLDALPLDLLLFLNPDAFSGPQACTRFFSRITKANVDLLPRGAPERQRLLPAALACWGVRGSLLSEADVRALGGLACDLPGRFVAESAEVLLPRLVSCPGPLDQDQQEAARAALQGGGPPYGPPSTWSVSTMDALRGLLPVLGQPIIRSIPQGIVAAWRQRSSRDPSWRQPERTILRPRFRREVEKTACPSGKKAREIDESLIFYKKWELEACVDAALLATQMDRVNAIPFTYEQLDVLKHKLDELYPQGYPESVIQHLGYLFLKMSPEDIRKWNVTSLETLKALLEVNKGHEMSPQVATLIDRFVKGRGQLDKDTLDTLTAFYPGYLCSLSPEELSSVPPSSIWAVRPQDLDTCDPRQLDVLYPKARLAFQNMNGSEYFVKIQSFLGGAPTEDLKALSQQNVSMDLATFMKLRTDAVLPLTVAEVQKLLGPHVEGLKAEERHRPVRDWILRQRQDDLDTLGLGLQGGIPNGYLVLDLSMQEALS",
  "test": "cell-based or functional assay",
  "data": [
    {"binder": "B1", "values": [
      {"measurement": "EC50, inhibition of proliferation of N87 gastric cancer cells (3H thymidine incorporation assay)", "result": 0.2, "unit": "nM"}
    ]}
  ]
}
